In patent US20160228502A1:
Where “and” joins values, the source holds several entries; their conditions need not be identical. Equal values may be shown once. One block for each substance: values may come before it.

Legend:
[1] = molecular target: SLN-YFP (rabbit) (UniProt P42532); assay: AFRET in COS7 cells
[2] = molecular target: sarco(endo)plasmic reticulum Ca^2+-ATPase 1 (SERCA1) (rabbit) (UniProt P04191); assay: coIP with antibodies to SERCA1 from COS7 extracts, densitometry, with FLAG-SLN coexpressed
Sequence of sarco(endo)plasmic reticulum Ca^2+-ATPase 1 (SERCA1) (rabbit) (P04191 whole entry): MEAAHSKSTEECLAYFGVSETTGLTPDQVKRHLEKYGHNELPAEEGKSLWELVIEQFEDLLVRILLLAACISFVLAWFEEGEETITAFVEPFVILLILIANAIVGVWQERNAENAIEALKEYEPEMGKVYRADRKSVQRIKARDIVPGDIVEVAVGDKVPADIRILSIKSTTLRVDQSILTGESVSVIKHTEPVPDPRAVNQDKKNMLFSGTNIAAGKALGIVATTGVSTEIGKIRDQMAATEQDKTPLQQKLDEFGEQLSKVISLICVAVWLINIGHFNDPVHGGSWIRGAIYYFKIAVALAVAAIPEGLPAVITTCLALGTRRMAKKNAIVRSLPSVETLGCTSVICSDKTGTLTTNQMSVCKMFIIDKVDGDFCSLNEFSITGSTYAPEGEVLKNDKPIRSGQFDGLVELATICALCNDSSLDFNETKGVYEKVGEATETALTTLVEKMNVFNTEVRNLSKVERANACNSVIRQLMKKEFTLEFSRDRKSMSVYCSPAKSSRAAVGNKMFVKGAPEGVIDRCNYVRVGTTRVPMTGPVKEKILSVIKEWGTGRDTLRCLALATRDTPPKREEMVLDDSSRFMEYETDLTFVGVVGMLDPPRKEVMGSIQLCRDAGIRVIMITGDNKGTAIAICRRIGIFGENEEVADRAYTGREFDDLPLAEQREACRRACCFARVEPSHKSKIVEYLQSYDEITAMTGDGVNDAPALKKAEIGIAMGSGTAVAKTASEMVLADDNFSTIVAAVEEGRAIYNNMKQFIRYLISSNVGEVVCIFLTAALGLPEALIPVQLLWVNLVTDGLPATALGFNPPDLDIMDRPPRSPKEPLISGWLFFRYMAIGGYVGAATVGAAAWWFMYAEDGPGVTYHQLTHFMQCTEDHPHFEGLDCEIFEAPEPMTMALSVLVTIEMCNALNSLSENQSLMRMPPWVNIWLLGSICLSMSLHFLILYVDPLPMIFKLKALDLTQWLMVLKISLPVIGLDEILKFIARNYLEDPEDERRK

[3] = molecular target: sarco(endo)plasmic reticulum Ca^2+-ATPase 1 (SERCA1) (rabbit) (UniProt P04191); assay: cell-based or functional assay
[4] = molecular target: sarco(endo)plasmic reticulum Ca^2+-ATPase 1 (SERCA1) (rabbit) (UniProt P04191); assay: coIP with antibodies to sAnk1 from COS7 extracts, densitometry
[5] = molecular target: sarco(endo)plasmic reticulum Ca^2+-ATPase 1 (SERCA1) (rabbit) (UniProt P04191); assay: coIP with antibodies to SERCA1 from COS7 extracts, densitometry
[6] = molecular target: sarco(endo)plasmic reticulum Ca^2+-ATPase 1 (SERCA1) (rabbit) (UniProt P04191); assay: coIP from COS7 extracts, densitometry
[7] = molecular target: SERCA1-CFP (rabbit) (UniProt P04191); assay: AFRET in COS7 cells
Sequence of SERCA1-CFP (rabbit) (P04191 whole entry): as above

[8] = molecular target: SERCA1-CFP (rabbit) (UniProt P04191); assay: AFRET in living COS7 cells
[9] = molecular target: SERCA1-CFP (rabbit) (UniProt P04191); assay: AFRET in COS7 cells, FLAG-SLN cotransfected
[10] = molecular target: SERCA1-CFP (rabbit) (UniProt P04191); assay: AFRET (Δr=rCFP-rFRET) in COS7 cells
[11] = molecular target: sarco(endo)plasmic reticulum Ca^2+-ATPase 1 (SERCA1) (rabbit) (UniProt P04191); assay: coIP with antibodies to SERCA1 from COS7 extracts, with or without FLAG-SLN
[12] = molecular target: sarco(endo)plasmic reticulum Ca^2+-ATPase 1 (SERCA1) (rabbit) (UniProt P04191); assay: amylose resin pull down from COS7 extracts expressing SERCA1, immunoblot densitometry
[13] = molecular target: SERCA1-CFP (rabbit) (UniProt P04191); assay: AFRET in COS7 cells, SERCA1-CFP as donor
[14] = molecular target: sAnk1-CFP; assay: AFRET in COS7 cells, sAnk1-CFP as donor

Sequence of SLN-YFP (rabbit) (P42532 whole entry): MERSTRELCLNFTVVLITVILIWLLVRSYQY

Substance: sAnk1-FLAG (C-terminal FLAG-tagged sAnk1)
fold increase in coIP with SERCA1 on addition of FLAG-SLN, against co-transfection of SERCA1 and sAnk1 alone [2]: 2.6 fold
HEK 293 mean Kca (nM), Ca^2+-ATPase assay [3]: 680 nM
HEK 293 mean Kca (pCa), Ca^2+-ATPase assay [3]: 6.17 pCa
KCa2+ ([Ca^2+] required for half-maximal activation) of SERCA1 Ca^2+-ATPase, COS7 microsomes, all assays compiled [3]: 759 nM
KCa2+ in pCa^2+ units, SERCA1 Ca^2+-ATPase, COS7 microsomes, all assays compiled [3]: 6.12 pCa^2+ units
Mean Kca (nM), Ca^2+-ATPase assay in COS7 microsomes, FIG. 6B [3]: 708 nM
Mean Kca (nM), Ca^2+-ATPase assay in COS7 microsomes, FIG. 6D [3]: 794 nM
Mean Kca (pCa), Ca^2+-ATPase assay in COS7 microsomes, FIG. 6B [3]: 6.15 pCa
Mean Kca (pCa), Ca^2+-ATPase assay in COS7 microsomes, FIG. 6D [3]: 6.1 pCa
shift of SERCA1's apparent Ca^2+ affinity, COS7 microsomes [3]: -0.18 pCa^2+ units
ΔKCa2+ in HEK293 microsomes [3]: -0.21 pCa^2+ units
ΔKCa2+ relative to SERCA1 Alone [3]: -0.2 pCa^2+ units
ΔKCa2+, COS7 microsomes, experiment with sAnk1 (all-L) [3]: -0.22 pCa^2+ units

Substance: sAnk1 (all-L)
percent of SERCA1 coimmunoprecipitated compared to WT [4]: 49%
KCa2+ ([Ca^2+] required for half-maximal activation) of SERCA1 Ca^2+-ATPase, COS7 microsomes [3]: 501 nM
KCa2+ in pCa^2+ units, SERCA1 Ca^2+-ATPase, COS7 microsomes [3]: 6.3 pCa^2+ units
Mean Kca (nM), Ca^2+-ATPase assay in COS7 microsomes, FIG. 6D [3]: 502 nM
Mean Kca (pCa), Ca^2+-ATPase assay in COS7 microsomes, FIG. 6D [3]: 6.3 pCa
ΔKCa2+ relative to SERCA1 Alone [3]: -0.02 pCa^2+ units
ΔKCa2+, COS7 microsomes [3]: -0.01 pCa^2+ units
percent of sAnk1 (all-L) coimmunoprecipitated compared to WT sAnk1 [5]: 49%
reduction in coIP, normalized to coIP of SERCA1 and sAnk1 (WT) [6]: 50% and 34% to 61% (2×)

Substance: sAnk1-YFP
AFRET Δrmean [7]: 0.021
AFRET Δrmean [8]: 0.043
AFRET Δrmean (cells cotransfected with FLAG-SLN) [9]: 0.036
AFRET Δrmean [10]: 0.026

Substance: sAnk1 (29-155)-FLAG
fold enhancement of the interaction in the presence of FLAG-SLN [11]: 2.7 fold

Second part, the substance after the results:

AFRET Δrmean [1]: 0.03
Substance: sAnk1-CFP

fold SERCA1 pulled down relative to the MBP control [12]: 9 fold
Substance: sAnk1 (29-155)-MBP fusion protein (from UniProt P0AEX9 27-392)

AFRET Δrmean [8]: 0.017
Substance: sAnk1 (all-L)-YFP

AFRET Δrmean [13]: -0.035
AFRET Δrmean [14]: -0.028
Substance: dysferlin-YFP
